Results on two substances are retold here after publication doi:10.1101/2021.07.05.451159.

Usually stoichiometry N stands for the number of molecules, sites or subunits per partner or assembly.

In one test the target is GST. Nature of the test: SEC. On the technique in general: SEC sorts molecules by how far they enter the pores of the column.
The target of test [1] is Gp22 (ALY06965.1), receptor-binding protein of C. difficile phage CDHS-1 (Clostridium difficile phage CDHS-1). In words: SEC.

Turning to GST (natural protein), the stoichiometry N with GST is 2. On to “Gp22 (ALY06965.1), receptor-binding protein of C. difficile phage CDHS-1 (natural protein)”, for which, in test [1], the stoichiometry N turned out to be 2.
